Experiments:
Type in all cases: cell-based
[1] = test system: CRISPR target m7GEP22 (maize HMG13 gene) in corn A188 immature embryos; assay: SDN-1 efficiency after co-delivery of TSA with editing plasmids, target m7GEP22, Taqman ddPCR (Example 18); conditions: 15 ng TSA co-bombarded, 48 hours after bombardment, 6 repeats
Protocol: (§1) The amounts of TSA used for a bombardment with 100 μg of gold particles (approximately, 4.0-5.0×10^7 gold particles size of 0.6 micron) is 15 ng. Specifically, the plasmid DNA and TSA were co-coated onto gold particles for bombardment as follows. For 10 shots, 100 microlite (μl) of 10 mg/ml 0.6 μm gold particle in 50% (v/v) glycerol particle stock solution (1.0 mg of the gold particles in total for 10 shots, and 100 μg per shot) was pipetted into a clear low-retention microcentrifuge tube. Sonicate for 15 seconds to suspend the gold particles. While vortex at a low speed, add the following in order: • 1.0 μg of pGEP1054 (FIG. 15), 1.5 μg of pGEP842 (FIG. 2) or pGEP1067 (FIG. 32) • 100 μl of 2.5 M CaCl2 (pre-cold on ice) • 40 μl of 0.1 M cold spermidine Close the lid and vortex the tube for 5 minutes at room temperature and spin down the DNA-coated gold particles. After washing in 1000 μl of 100% ethanol (pre-cold at −20° C.) for two times, the pellet was resuspended in 120 μl of 100% ethanol. Finally, 150 ng of TSA was added into the resuspended gold particle solution carefully. While vertexing at a low speed, pipet 10 μl of TSA co-coated gold particles with a wide open 20 μl tip from the tube onto the center of the macrocarrier evenly. Since the particles tend to form clumps at this point, get the gold particles onto the macrocarriers as soon as possible. […]

[2] = test system: CRISPR target m7GEP1 (maize HMG13 gene) in corn A188 immature embryos; assay: SDN-1 efficiency after co-delivery of TSA with editing plasmids, target m7GEP1, Taqman ddPCR (Example 18); conditions: 15 ng TSA co-bombarded, 48 hours after bombardment, 6 repeats
Protocol: as §1

[3] = test system: maize HMG13 gene in maize A188 immature embryos; assay: Genome editing SDN-1 in regenerated T0 plants of maize A188 (Example 5); conditions: for Total SDN-1: T0 events; for Bi-SDN-1: T0 events with bi-allelic SDN-1; for Mon-SDN-1: T0 events with mono-allelic SDN-1; for % SDN-1/IE: per immature embryo initially used; for % SDN-1/Event: per regenerated T0 event; for Total Events: regenerated T0 events, co-bombarded with pGEP837 and pGEP842
Protocol: Specifically, construct pGEP837 (SEQ ID NO: 52, FIG. 1) and the crRNA construct pGEP842 (SEQ ID NO: 53, FIG. 2) were co-bombarded with the different boosters as indicated into maize A188 immature embryos by particle bombardment. For each bombardment (shot), 100 ng of plasmid pGEP837 were cocoated with 150 ng of plasmid pGEP842 and 100 ng each of different boost constructs onto 100 μg of 0.4 μm gold particles using calcium-spermidine method. Three bombardments (shots) per sample plate were performed.
(§2) After bombardment the embryos were remained on the osmotic medium (N60SM) for another 16-20 hours. The embryos were transferred from the osmotic medium onto embryogenic callus induction medium (e.g. N6_5Ag) in a petri dish plate (100×25 mm) with scutellum-face-up, at a density of 12-15 embryos per plate. The embryos were incubated at 27° C. in dark for the embryogenic callus induction. After embryogenic callus induction in N6_5Ag medium for 10-14 days the induced calluses were transferred onto embryo maturation medium MRM1 in petro dish (100×25 mm), and cultured at 27° C. in dark for 10 days, and then at 25° C., weak light (20-50 μmol m^−2 s^−1) for 2-4 days. The mature somatic embryos were then transferred onto MSO medium (see below) in phytotray for plant outgrowth and further development for 5-7 days. A 5-10 mm leaf tip from each of the leaves of a T0 plant is collected for DNA extraction. The targeted genome editing SDN-1 in the regenerated T0 plants are screened by TaqMan real-time PCR (qPCR), and further conformed by Sanger sequencing trace decomposition analysis.

[4] = test system: maize HMG13 gene in immature embryos of maize recalcitrant elite 4V-40290; assay: Genome editing SDN-1 in T0 plants of elite 4V-40290 (Example 13); conditions: for Bi-SDN-1 / Mon-SDN-1 / Total SDN-1: T0 events; for % SDN-1/IE: per immature embryo initially used; for % SDN-1/Event: per regenerated T0 event; for Total Event: regenerated T0 events, co-bombarded with pGEP837 and pGEP842
Protocol: as §2
(§3) The workflow was as described in Example 6. For immature embryo isolation, osmotic treatment, and bombardment, please see the description in Example 1. Specifically, genome editing constructs pGEP837 (SEQ ID NO: 52, FIG. 1) and pGEP842 (SEQ ID NO: 53, FIG. 2) were co-bombarded with the different boosters as indicated into the immature embryos of elite 4V-40290 by particle bombardment. For each bombardment (shot), 100 ng of plasmid pGEP837 and 150 ng of plasmid pGEP842 were cocoated with 100 ng each of different boost constructs onto 100 μg of 0.4 μm gold particles using calcium-spermidine method. Three bombardments (shots) per sample plate were performed. The bombarded embryos were transformed onto the embryogenic callus induction medium 16-20 hours after bombardment.
(§4) For plant regeneration, and genome editing SDN-1 screen and conformation in regenerated T0 plants please see Example 5 and Example 9.

[5] = test system: maize HMG13 gene in immature embryos of maize recalcitrant elite 2V-20195; assay: Genome editing SDN-1 in T0 plants of elite 2V-20195 (Example 12)
Protocol: as §2
as §3, with “embryos of maize elite 2V-20195” for “embryos of elite 4V-40290”, “maize elite 2V-20195 by particle” for “of elite 4V-40290 by particle”, “pGEP842 were co-coated with 100” for “pGEP842 were cocoated with 100”
as §4

| Molecule | increase in the SDN-1 efficiency compared to the control without TSA (CK) [1] [%] | increase in the SDN-1 efficiency compared to the control without TSA (CK) [2] [%] | Total SDN-1 [3] | Bi-SDN-1 [3] | Mon-SDN-1 [3] | % SDN-1/IE [3] [%] | % SDN-1/Event [3] [%] | Total Events [3] | Bi-SDN-1 [4] | Mon-SDN-1 [4] | Total SDN-1 [4] | % SDN-1/IE [4] [%] | % SDN-1/Event [4] [%] | Total Event [4] | Bi-SDN-1 ([5]; T0 events) | Mon-SDN-1 ([5]; T0 events) | Total SDN-1 ([5]; T0 events) | % SDN-1/IE ([5]; per immature embryo initially used) [%] | % SDN-1/Event ([5]; per regenerated T0 event) [%] | Total Event ([5]; regenerated T0 events, co-bombarded with pGEP837 and pGEP842) |
| --- | --- | --- | --- | --- | --- | --- | --- | --- | --- | --- | --- | --- | --- | --- | --- | --- | --- | --- | --- | --- |
| CC(/C=C/C(=O)NO)=C\[C@@H](C)C(=O)c1ccc(N(C)C)cc1 [TSA, trichostatin A] | 354.5 | 61.5 |  |  |  |  |  |  |  |  |  |  |  |  |  |  |  |  |  |  |
| RBP7: artificial regeneration booster protein, SEQ ID NO: 38 (CDS SEQ ID NO: 26), construct pABM-BdEF1_RBP7 (protein) MVSKGEEVIKEFSGSTRWNPTAEQLSLLKELYYRNGIRTPSADQIRQISARLSRYGKIEGKNVFYWFQNHKARERQKKRLSTVGCDPALIEMGNVASLEFGTESALESLSSGPSSELREAPTRKFYEKKTVGENSTIINPVEQNCTLSCGTSQEFQYAVDSRRVMKAMEEKQATDDEPDGNKWTESNRHVKTLPLFPLHNNVETLPLFPEDSGSLDLELELGFASGGSAGSVDTLPLFPREAAGSGEFATAAATSGSQRASALDLCLSLGNESCGLHDN |  |  | 6 | 5 | 1 | 19.4 | 12.0 | 50 |  |  |  |  |  |  |  |  |  |  |  |  |
| RBP8: artificial regeneration booster protein, SEQ ID NO: 39 (CDS SEQ ID NO: 27), construct pABM-BdEF1_RBP8 (protein) MVSKGEEVIKEFSGSTRWNPTAEQVKVLREIYYRAGLRTPSADQIRQISSQLKRYGKVEGKNVFYWFQNHKARERQKKRLSTVGSAGSAAGSGEFRHVKTLPLFPLHNNEDSGSGLDLDLNLELRLSATAAATSGSQRASALDLDLELRLGFALGNESCGLHDN |  |  | 9 | 5 | 4 | 39.1 | 13.4 | 67 | 1 | 6 | 7 | 28.0 | 20.6 | 34 |  |  |  |  |  |  |
| RBP2: artificial regeneration booster protein, SEQ ID NO: 33 (CDS SEQ ID NO: 21), expressed from construct pABM-BdEF1_RBP2 (protein) MESGSGTAAGSGYVYRQSGSTRWNPTAEQLSLLKELYYRNGIRTPSADQIRQISARLSRYGKIEGKNVFYWFQNHKARERQKKRLSTVGCDPALIEMGNVASLEFGTESALESLSSGPSSELREAPTRKFYEKKTVGENSTIINPVEQNCTLSCGTSQEFQYAVDSRRVMKAMEEKQATDDEPDGNKWTESNRHVKTLPLFPLHNNEDQTLIKSDKEIYCLGSCEKKMDLSPLGHSGSQRASALDLCLSLGNESCGLHDN |  |  | 34 | 20 | 14 | 22.7 | 14.3 | 237 | 2 | 0 | 2 | 9.1 | 13.3 | 15 | 1 | 0 | 1 | 2.1 | 6.3 | 16 |
| RBP5: artificial regeneration booster protein, SEQ ID NO: 36 (CDS SEQ ID NO: 24), construct pABM-BdEF1_RBP5 (protein) MVSKGEEVIKEFSGSTRWNPTAEQLSLLKELYYRNGIRTPSADQIRQISARLSRYGKIEGKNVFYWFQNHKARERQKKRLSTVGCGSAGSAAGSGEFRHVKTLPLFPLHNNVETLPLFPEDSGSLDLELELGFASATAAATSGSQRASALDLCLSLGNESCGLHDN |  |  | 11 | 8 | 3 | 23.4 | 4.9 | 224 |  |  |  |  |  |  |  |  |  |  |  |  |

— US12637685B2, “Method for rapid genome modification in recalcitrant plants” (KWS SAAT SE & Co. KGaA, priority 2020, dated 2026)
